Data from patent US6333189A, “Method of making an electrotransport device” (ALZA Corporation, priority 1997, dated 2001).
Ends that are not written are not given here.

Tests used:
[1] = test system: PTH receptor (rat osteosarcoma cell line UMR106); experiment: adenylate cyclase stimulation / cAMP in UMR106 cells (PTH receptor activation); assay type: cell-based; settings: for EC50: cAMP, 5 minutes, 1 mM IBMX, read-out: EC-50 (effective concentration)
Protocol: The peptide was then desalted and partially purified on a SepPak column. Individual peaks were isolated and analyzed by electrospray mass spectrometry to determine the composition.
PTH concentrations were determined by OD280 using an extinction coefficient of 6600 for the recombinant peptide and 5500 for the synthetic peptide. […] Activation of the PTH receptor leads to an intracellular rise in cAMP concentration.
The UMR106 cells were seeded at about 2.5×10^5 per well in a 48 well dish and allowed to grow to confluence. Assays were performed on cells 3-5 days postconfluence. The media (Dulbecco's modified Eagle's medium, DMEM, with fetal calf serum) was removed, and 1 mL of fresh media was applied. PTH (recombinant or synthetic) at various concentrations and 3-isobutyl-1-methyl xanthine (IBMX) at 1 mM final concentration were then added to each well of the plate, which was then incubated for 5 minutes at room temperature. The media was then removed and the cells quickly washed with ice cold PBS. The cells were then extracted twice with 1 mL of absolute ethanol. The two extractions were combined and the ethanol removed by evaporation. The extract was then redissolved in 1 mL of scintillation proximity buffer (SPA buffer) (Amersham, Arlington Heights, Ill.). The cAMP concentration was determined by assay using a scintillation proximity assay (SPA) kit available from Amersham.

[2] = Circular dichroism in varying trifluoroethanol concentrations, PTH analogs; assay type: physicochemical; design: [θ]222 (mean residue ellipticity): unit not given here; settings: for [θ]222 (mean residue ellipticity): pH 6.5 10 mM cacodylate, 20° C; for helicity: 30% (v/v) TFE
Protocol: The trifluoroethanol (TFE) circular dichroism studies were done using an AVIV Associates, Inc. Model 62DS Circular Dichroism Spectrometer. Protein concentrations were determined from absorbance readings using calculated extinction coefficients for the analogs in 10 mM ionic buffer. TFE titrations were done from 0 to 50% TFE, scanning from 250 to 200 nm at 20° C. for each TFE sample.

[3] = in vitro and in vivo studies; cited from earlier work
[4] = Stability when incubated with stripped stratum corneum; assay type: in vitro ADME, human
[5] = In vitro electrotransport flux of the PTH analogs; settings: retro-inverso versions, 1 mM, pH 5.0, 0.1 mA/cm^2, 32° C, BSA/Tween 20 receptor
PTH receptor [6] = target: T1, PTH receptor (rat, UniProt P25961)
Target sequence in this assay (P25961 27-591): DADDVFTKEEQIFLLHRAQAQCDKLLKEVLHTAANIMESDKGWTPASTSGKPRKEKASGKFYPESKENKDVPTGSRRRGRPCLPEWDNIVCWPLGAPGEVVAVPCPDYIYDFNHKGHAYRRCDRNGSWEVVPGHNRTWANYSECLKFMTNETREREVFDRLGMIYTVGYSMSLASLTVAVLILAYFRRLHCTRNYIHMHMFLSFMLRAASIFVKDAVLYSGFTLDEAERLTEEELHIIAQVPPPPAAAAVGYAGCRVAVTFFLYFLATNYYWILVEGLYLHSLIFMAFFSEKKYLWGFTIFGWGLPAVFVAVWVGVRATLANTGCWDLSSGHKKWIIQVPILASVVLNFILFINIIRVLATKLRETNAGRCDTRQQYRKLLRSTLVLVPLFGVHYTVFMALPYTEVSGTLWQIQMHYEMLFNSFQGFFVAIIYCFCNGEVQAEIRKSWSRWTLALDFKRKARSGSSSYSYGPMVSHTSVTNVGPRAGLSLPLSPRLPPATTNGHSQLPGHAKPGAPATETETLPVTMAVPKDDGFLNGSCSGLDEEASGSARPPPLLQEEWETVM

[7] = in vitro skin permeation; cited from earlier work
PTH receptor [8] = target: T1, PTH receptor; experiment: Kd reported in the PTH analog activity assay on UMR106 cells; the method used for the Kd is not described
PTH receptor (rat) = PTH receptor (rat) (UniProt P25961)
Sequence of PTH receptor (rat) (P25961 27-591): as above

PTH analog 3: amino acid sequence of FIG. 1D (SEQ ID NO:9); recombinantly synthesized (SVSEIQLMHNLGKHLNSMERPEWLRKKPQDVHNF)
activity (ability to stimulate adenylate cyclase) ([1]; UMR106 cells): no measurable activity
[θ]222 (mean residue ellipticity) ([2]; 0% TFE): -3867
[θ]222 (mean residue ellipticity) ([2]; 10% TFE): -6479
[θ]222 (mean residue ellipticity) ([2]; 20% TFE): -12329
helicity [2]: about 15%
[θ]222 (mean residue ellipticity) ([2]; 30% TFE): -15161
[θ]222 (mean residue ellipticity) ([2]; 40% TFE): -15191
[θ]222 (mean residue ellipticity) ([2]; 50% TFE): -15395
helix in the absence of the helix-inducing TFE (in words) ([2]; no TFE): essentially devoid of helix

NC(=O)CC[C@@H]1NC(=O)[C@H](Cc2ccccc2)NC(=O)[C@H](Cc2ccc(O)cc2)NC(=O)[C@@H](N)CSSC[C@@H](C(=O)N2CCC[C@H]2C(=O)N[C@@H](CCCN=C(N)N)C(=O)NCC(N)=O)NC(=O)[C@H](CC(N)=O)NC1=O [vasopressin]
transdermal delivery via electrotransport [3]: possible

insulin: insulin, cited electrotransport study
transdermal delivery via electrotransport [3]: possible

PTH analog 1: FIG. 1B (SEQ ID NO:7): Met8Leu, Leu15Arg, Met18Leu, Glu19Arg, Glu22Arg, Gln29Lys, Phe34Tyr, homoserine lactone at the C-terminus
EC50 ([1]; UMR106 cells): 0.9 nM
stability when incubated with stripped stratum corneum [4]: not stable
[θ]222 (mean residue ellipticity) ([2]; 0% TFE): -4205
[θ]222 (mean residue ellipticity) ([2]; 10% TFE): -9333
[θ]222 (mean residue ellipticity) ([2]; 20% TFE): -23098
helicity [2]: about 80%
[θ]222 (mean residue ellipticity) ([2]; 30% TFE): -26334
[θ]222 (mean residue ellipticity) ([2]; 40% TFE): -27580
[θ]222 (mean residue ellipticity) ([2]; 50% TFE): -27705
median mass flux (95% confidence interval) ([5]; 95% CI: analog 1 0.1 to 0.7, analog 2 2.1 to 4.2): 0.3 μg cm^-2 h^-1
average mass flux ± sd ([5]; sd: analog 1 ±2.3, analog 2 ±3.7): 1.4 μg cm^-2 h^-1

Wild-type PTH: wild-type, parent PTH polypeptide, FIG. 1A (SEQ ID NO:6), 34 amino acid residues [reference compound]
EC50 ([1]; UMR106 cells): 4.4 nM

Synthetic PTH having the wild-type sequence (ligand)
stimulation of adenylate cyclase (intracellular cAMP, scintillation proximity assay) in UMR106 cells (PTH receptor [6]): 4.4 nM

NC(=O)[C@@H]1CCCN1C(=O)[C@H](Cc1cnc[nH]1)NC(=O)[C@@H]1CCC(=O)N1 [thyrotropin releasing hormone]
electrotransport flux compared with passive diffusional flux [7]: higher than passive diffusional flux

B1: RPTH: recombinant PTH (RPTH), HPLC purified or crude Sep-Pak purified (peptide, UniProt P01270 32-115, looked up)
Parathyroid hormone: SVSEIQLMHNLGKHLNSMERVEWLRKKLQDVHNFVALGAPLAPRDAGSQRPRKKEDNVLVESHEKSLGEADKADVNVLTKAKSQ
adenylate cyclase stimulatory ability, crude Sep-Pak purified vs HPLC purified ([1]; crude Sep-Pak purified sample compared with HPLC purified RPTH): no significant difference in adenylate cyclase stimulatory ability

SVSEIQLLHNLGKHRNSLRRVRWLRKKLKDVHNY-{HSL} (ligand) [PTH analog 1 (1-35)]
Kd (PTH receptor [8]): 1.5 nM
stimulation of adenylate cyclase (intracellular cAMP, scintillation proximity assay) in UMR106 cells (PTH receptor (rat)): 0.9 nM
